Measurements as given in US20050025760A1 (KEIO UNIVERSITY, published 2005).

Target: T1, Dsg1-M1-2 (human, UniProt Q02413 50-545, H25T; C28Y; A29Q; N31T; Q33K; V34I)
T1 construct: extracellular domain; Dsg1-specific residues changed to the Dsg3-specific ones; also called hDsg1-M1-2
T1 sequence (looked up): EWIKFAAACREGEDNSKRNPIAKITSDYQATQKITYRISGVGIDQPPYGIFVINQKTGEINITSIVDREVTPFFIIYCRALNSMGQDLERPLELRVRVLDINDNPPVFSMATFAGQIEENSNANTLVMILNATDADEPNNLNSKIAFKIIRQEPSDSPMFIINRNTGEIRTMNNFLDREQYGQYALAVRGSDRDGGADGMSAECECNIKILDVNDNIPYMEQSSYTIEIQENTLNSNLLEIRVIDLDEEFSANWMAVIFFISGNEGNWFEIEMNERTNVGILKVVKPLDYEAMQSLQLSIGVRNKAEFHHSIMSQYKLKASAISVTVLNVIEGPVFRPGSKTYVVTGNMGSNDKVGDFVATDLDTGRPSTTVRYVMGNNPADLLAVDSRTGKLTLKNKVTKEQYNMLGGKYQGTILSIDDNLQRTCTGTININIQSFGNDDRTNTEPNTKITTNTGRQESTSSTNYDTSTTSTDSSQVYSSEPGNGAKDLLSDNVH
Assay: immunoprecipitation of point-mutated molecules (FIG. 5)

B1: anti-Dsg3 monoclonal antibody AK23 (antibody, mouse IgG1, V domains shown)
VH: QVQLQQSGTELVKPGASVKLSCKSSGYTFTSYWINWVKQRPGQGLEWIGNINPSNGGINYNEKFKSKATLTVDKSSSTAYMQLKSLTSEDSAVYYCARGGYDGYPWGQGTTVTVS
VL: DIQMTQSPKFLLVSAGDRVTITCKASQSVSYDVAWYQQKPGQSPKLLISYASNRYTGVPDRFTGSGYGSDFTFTISTVQTEDLAVYFCQQDYSSPWTFGGGTKLELKR
notes: Mouse IgG1 kappa hybridoma antibody
binding result: no binding
